For experiment [1], the target named is human gp130 on the BAF3 cell surface (human) (UniProt P40189). The experiment in a line: cell-based or functional assay.
Experiment [2] has as its target Hyper-IL-6 (designer cytokine consisting of covalently linked IL-6 and sIL-6R) (human) (UniProt P08887). Kind of experiment: SPR. The settings on record: Fc fusion.
Target sequence in this assay (P08887 20-323, chain 1 of 2): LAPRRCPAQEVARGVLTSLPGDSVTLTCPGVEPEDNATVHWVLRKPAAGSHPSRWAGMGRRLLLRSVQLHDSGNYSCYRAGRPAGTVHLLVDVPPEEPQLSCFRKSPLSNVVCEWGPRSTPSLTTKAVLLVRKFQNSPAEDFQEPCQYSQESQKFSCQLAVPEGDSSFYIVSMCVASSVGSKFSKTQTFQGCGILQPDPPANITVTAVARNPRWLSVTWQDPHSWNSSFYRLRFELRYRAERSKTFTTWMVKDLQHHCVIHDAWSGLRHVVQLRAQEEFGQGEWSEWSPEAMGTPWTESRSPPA
Target sequence in this assay (P05231 30-212, chain 2 of 2, further chain): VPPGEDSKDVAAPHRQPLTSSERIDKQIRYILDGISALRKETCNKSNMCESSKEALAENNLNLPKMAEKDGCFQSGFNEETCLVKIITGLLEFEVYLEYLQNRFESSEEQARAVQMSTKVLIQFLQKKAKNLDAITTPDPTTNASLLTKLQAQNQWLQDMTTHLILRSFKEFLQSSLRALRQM
Experiment [3] shares this target. Kind of experiment: cell-based or functional assay.
Target sequence in this assay (P08887 20-323 limits assumed, chain 1 of 2): as the sequence (P08887 20-323, chain 1 of 2) above
Target sequence in this assay (P05231 30-212 limits assumed, chain 2 of 2, further chain): as the sequence (P05231 30-212, chain 2 of 2, further chain) above
In experiment [4] the target is human IL-6/sIL-6R complex (interleukin-6 plus soluble interleukin-6 receptor) (human) (UniProt P05231). The experiment in a line: cell-based or functional assay.
For experiment [5], the target named is Hyper-IL-6 (designer cytokine consisting of covalently linked IL-6 and sIL-6R) (human) (UniProt P08887). The experiment in a line: SPR, ProteOn XPR36, mutein immobilised, Hyper-IL-6 80 to 2.5 nM in flow, 25 C.
Target sequence in this assay (P08887 20-323 limits assumed, chain 1 of 2): as the sequence (P08887 20-323, chain 1 of 2) above
Target sequence in this assay (P05231 30-212 limits assumed, chain 2 of 2, further chain): as the sequence (P05231 30-212, chain 2 of 2, further chain) above

Sequence of human IL-6/sIL-6R complex (interleukin-6 plus soluble interleukin-6 receptor) (human) (P05231 30-212 limits assumed, chain 1 of 2): as the sequence (P05231 30-212, chain 2 of 2, further chain) above
Sequence of human IL-6/sIL-6R complex (interleukin-6 plus soluble interleukin-6 receptor) (human) (P08887 20-358 limits assumed, chain 2 of 2, further chain): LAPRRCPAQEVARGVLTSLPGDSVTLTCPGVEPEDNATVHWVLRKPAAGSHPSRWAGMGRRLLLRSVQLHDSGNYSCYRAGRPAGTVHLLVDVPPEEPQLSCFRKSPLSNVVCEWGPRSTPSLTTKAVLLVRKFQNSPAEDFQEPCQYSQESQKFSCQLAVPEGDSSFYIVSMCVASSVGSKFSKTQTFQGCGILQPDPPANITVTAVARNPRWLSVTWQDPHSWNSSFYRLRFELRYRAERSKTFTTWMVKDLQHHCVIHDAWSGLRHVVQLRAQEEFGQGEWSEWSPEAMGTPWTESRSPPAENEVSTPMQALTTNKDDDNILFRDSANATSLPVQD
Sequence of human gp130 on the BAF3 cell surface (human) (P40189 23-918): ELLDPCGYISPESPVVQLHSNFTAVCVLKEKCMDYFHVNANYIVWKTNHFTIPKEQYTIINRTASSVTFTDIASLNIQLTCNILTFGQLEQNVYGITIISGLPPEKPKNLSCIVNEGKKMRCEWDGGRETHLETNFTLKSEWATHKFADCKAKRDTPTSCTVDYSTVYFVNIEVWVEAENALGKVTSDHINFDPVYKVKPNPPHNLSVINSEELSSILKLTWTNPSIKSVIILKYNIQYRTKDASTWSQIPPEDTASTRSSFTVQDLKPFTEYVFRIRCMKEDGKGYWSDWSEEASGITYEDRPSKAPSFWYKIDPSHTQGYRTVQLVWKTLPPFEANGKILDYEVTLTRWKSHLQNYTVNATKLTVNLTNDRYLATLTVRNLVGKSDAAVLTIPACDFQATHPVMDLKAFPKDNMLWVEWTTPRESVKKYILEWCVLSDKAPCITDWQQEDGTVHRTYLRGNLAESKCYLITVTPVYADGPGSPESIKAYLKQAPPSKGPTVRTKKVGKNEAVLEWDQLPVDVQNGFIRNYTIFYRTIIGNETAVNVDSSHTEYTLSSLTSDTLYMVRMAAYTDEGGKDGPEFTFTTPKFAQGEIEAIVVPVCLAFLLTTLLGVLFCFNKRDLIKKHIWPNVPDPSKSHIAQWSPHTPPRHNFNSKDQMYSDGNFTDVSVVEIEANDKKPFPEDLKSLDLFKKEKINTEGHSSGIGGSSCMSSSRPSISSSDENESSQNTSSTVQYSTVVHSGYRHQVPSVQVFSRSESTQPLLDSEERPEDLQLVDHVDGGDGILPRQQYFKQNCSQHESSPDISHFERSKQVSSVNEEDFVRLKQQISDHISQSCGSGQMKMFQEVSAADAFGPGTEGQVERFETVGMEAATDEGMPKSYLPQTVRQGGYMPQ

“murine IL-6/sIL-6R complex (from UniProt P08505 25-211; P22272 20-364) (ligand)” yielded an amount needed for the same proliferation signal in BAF3/gp130 cells, against human IL-6/sIL-6R in experiment [1] of 3 fold.

One may read the Kd as the equilibrium constant for the complex coming apart. A higher Kd goes with a looser complex. Substance “sgp130Fc triple mutein Thr102Tyr/Gln113Phe/Asn114Leu (T102Y/Q113F/N114L) (from UniProt P40189 23-619)” returned a Kd in experiment [2] of 0.122 nM. That is a sub-nanomolar value.

For the substance “sgp130Fc triple mutein Thr102Tyr/Gln113Phe/Asn114Leu (T102Y/Q113F/N114L) (from UniProt P40189 23-619) (Fc fusion)”, in experiment [3], the IC50 of inhibition of BAF3/gp130 proliferation, fold lower than wild type sgp130Fc (Cell Titer-Blue assay) is more than 3 fold. In addition, the IC50 of inhibition of BAF3/gp130 proliferation, fold lower than wild type sgp130Fc (MTS assay) in experiment [4] was 3 fold. Besides, in experiment [5], the fold increase of the affinity constant KD against wild type sgp130Fc worked out at 4 fold.

Values taken from US8501696.
